Reference: US20220411483A1 (Chugai, published 2022)

T1: FcgRIIaR (human, UniProt P12318 34-217)
T1 construct: extracellular domain; also called FcγRIIa R type; FcγRIIa (R type)
T1 sequence (looked up): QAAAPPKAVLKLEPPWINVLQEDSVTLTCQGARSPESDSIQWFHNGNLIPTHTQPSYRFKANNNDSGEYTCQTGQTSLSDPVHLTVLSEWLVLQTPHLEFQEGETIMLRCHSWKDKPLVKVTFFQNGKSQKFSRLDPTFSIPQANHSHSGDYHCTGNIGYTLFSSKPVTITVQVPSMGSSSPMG

T2: FcgRIIb (human, UniProt P31994 43-217)
T2 construct: extracellular domain; also called FcγRIIb
T2 sequence (looked up): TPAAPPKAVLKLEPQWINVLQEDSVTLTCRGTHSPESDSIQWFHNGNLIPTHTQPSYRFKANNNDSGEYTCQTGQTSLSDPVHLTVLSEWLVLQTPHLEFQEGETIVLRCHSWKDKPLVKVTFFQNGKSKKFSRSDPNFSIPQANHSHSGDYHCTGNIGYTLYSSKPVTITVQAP


Tests used:
[1] = molecular target: T1, FcgRIIaR; experiment: SPR, amount bound per captured antibody
[2] = molecular target: T2, FcgRIIb; experiment: SPR, amount bound per captured antibody
[3] = molecular target: T3, human complement C1q (human, UniProt P02745 23-245; P02746 28-253; P02747 29-245); experiment: SPR, C1q bound per antibody captured on Protein L
T3 construct: Bought (PROSPEC or Calbiochem); also called human C1q
Method in brief: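 Antibodies captured on Protein L immobilized on a CM4 chip were exposed to human C1q diluted in HBS-EP+ running buffer at 25° C. C1q binding was normalized as C1q bound divided by antibody captured. The surface was regenerated with 10 mM glycine-HCl, pH 1.5.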

T3 sequence (P02745 23-245 limits assumed, chain 1 of 3): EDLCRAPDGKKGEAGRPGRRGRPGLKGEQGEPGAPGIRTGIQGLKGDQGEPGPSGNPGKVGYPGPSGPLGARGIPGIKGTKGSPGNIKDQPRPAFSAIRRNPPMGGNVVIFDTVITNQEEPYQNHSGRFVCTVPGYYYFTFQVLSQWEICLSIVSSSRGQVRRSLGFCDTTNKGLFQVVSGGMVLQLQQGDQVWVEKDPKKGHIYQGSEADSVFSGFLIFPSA
T3 sequence (P02746 28-253 limits assumed, chain 2 of 3): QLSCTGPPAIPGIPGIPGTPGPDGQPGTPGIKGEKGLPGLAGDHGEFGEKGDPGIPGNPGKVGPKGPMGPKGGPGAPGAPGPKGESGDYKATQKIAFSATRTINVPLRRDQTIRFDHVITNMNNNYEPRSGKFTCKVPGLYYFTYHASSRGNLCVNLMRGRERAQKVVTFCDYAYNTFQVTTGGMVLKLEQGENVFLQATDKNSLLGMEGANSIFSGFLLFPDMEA
T3 sequence (P02747 29-245 limits assumed, chain 3 of 3): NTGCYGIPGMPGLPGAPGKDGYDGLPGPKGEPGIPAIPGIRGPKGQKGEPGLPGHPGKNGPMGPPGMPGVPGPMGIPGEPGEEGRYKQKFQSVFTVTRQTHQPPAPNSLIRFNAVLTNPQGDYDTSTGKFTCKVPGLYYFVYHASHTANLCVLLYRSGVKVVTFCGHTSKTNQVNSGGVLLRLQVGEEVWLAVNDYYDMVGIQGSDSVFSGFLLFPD

Relative FcgRIIaR-binding Activity [1] [IL6R-G1d/IL6R-L=100] | Relative FcgRIIb-binding Activity [2] [IL6R-G1d/IL6R-L=100] | Amount of C1q-binding when that for G1d is Defined as 100 [3] [G1d=100] | Binder
87.3 | 192 | 1.7 | IL6R-P773/IL6R-L (antibody, human IgG1, kappa) heavy: QVQLQESGPGLVKPSETLSLTCAVSGHSISHDHAWSWVRQPPGEGLEWIGFISYSGITNYNPSLQGRVTISRDNSKNTLYLQMNSLRAEDTAVYYCARSLARTTAMDYWGEGTLVTVSSASTKGPSVFPLAPSSKSTSGGTAALGCLVKDYFPEPVTVSWNSGALTSGVHTFPAVLQSSGLYSLSSVVTVPSSSLGTQTYICNVNHKPSNTKVDKKVEPKSCDKTHTCPPCPAPELLGGDSVFLFPPKPKDTLMISRTPEVTCVVVDVAEEDGEVKFNWYVDGVEVHNAKTKPREEQYNSTYRVVSVLTVLHQDWLNGKEYKCAVSNKALPAPIEKTISKAKGQPREPQVYTLPPSRDELTKNQVSLTCLVKGFYPSDIAVEWESNGQPENNYKTTPPVLDSDGSFFLYSKLTVDKSRWQQGNVFSCSVMHEALHNHYTQKSLSLSP light: not shown
97.5 | 198 | 12.4 | IL6R-P777/IL6R-L (antibody, human IgG1, kappa) heavy: QVQLQESGPGLVKPSETLSLTCAVSGHSISHDHAWSWVRQPPGEGLEWIGFISYSGITNYNPSLQGRVTISRDNSKNTLYLQMNSLRAEDTAVYYCARSLARTTAMDYWGEGTLVTVSSASTKGPSVFPLAPSSKSTSGGTAALGCLVKDYFPEPVTVSWNSGALTSGVHTFPAVLQSSGLYSLSSVVTVPSSSLGTQTYICNVNHKPSNTKVDKKVEPKSCDKTHTCPPCPAPDLLGGDSVFLFPPKPKDTLMISRTPEVTCVVIDVAEEDGEVKFNWYVDGVEVHNAKTKPREEQYNSTYRVVSVLTVLHQDWLNGKEYKCAVSNKALPAPIEKTISKAKGQPREPQVYTLPPSRDELTKNQVSLTCLVKGFYPSDIAVEWESNGQPENNYKTTPPVLDSDGSFFLYSKLTVDKSRWQQGNVFSCSVMHEALHNHYTQKSLSLSP light: not shown
105 | 198 | 23.9 | IL6R-P778/IL6R-L (antibody, human IgG1, kappa, also called IL6B-P778/IL6R-L) heavy: QVQLQESGPGLVKPSETLSLTCAVSGHSISHDHAWSWVRQPPGEGLEWIGFISYSGITNYNPSLQGRVTISRDNSKNTLYLQMNSLRAEDTAVYYCARSLARTTAMDYWGEGTLVTVSSASTKGPSVFPLAPSSKSTSGGTAALGCLVKDYFPEPVTVSWNSGALTSGVHTFPAVLQSSGLYSLSSVVTVPSSSLGTQTYICNVNHKPSNTKVDKKVEPKSCDKTHTCPPCPAPDLLGGDSVFLFPPKPKDTLMISRTPEVTCVVIDVAEEDGEVKFNWYVDGVEVHNAKTKPREEQYNSTYRVVSVLTVLHQDWLNGKEYKCEVSNKALPAPIEKTISKAKGQPREPQVYTLPPSRDELTKNQVSLTCLVKGFYPSDIAVEWESNGQPENNYKTTPPVLDSDGSFFLYSKLTVDKSRWQQGNVFSCSVMHEALHNHYTQKSLSLSP light: not shown
77.4 | 190 | 0.7 | IL6R-P776/IL6R-L (antibody, human IgG1, kappa) heavy: QVQLQESGPGLVKPSETLSLTCAVSGHSISHDHAWSWVRQPPGEGLEWIGFISYSGITNYNPSLQGRVTISRDNSKNTLYLQMNSLRAEDTAVYYCARSLARTTAMDYWGEGTLVTVSSASTKGPSVFPLAPSSKSTSGGTAALGCLVKDYFPEPVTVSWNSGALTSGVHTFPAVLQSSGLYSLSSVVTVPSSSLGTQTYICNVNHKPSNTKVDKKVEPKSCDKTHTCPPCPAPELLGGDSVFLFPPKPKDTLMISRTPEVTCVVVDVSHEDGEVKFNWYVDGVEVHNAKTKPREEQYNSTYRVVSVLTVLHQDWLNGKEYKCEVSNKALPAPIEKTISKAKGQPREPQVYTLPPSRDELTKNQVSLTCLVKGFYPSDIAVEWESNGQPENNYKTTPPVLDSDGSFFLYSKLTVDKSRWQQGNVFSCSVMHEALHNHYTQKSLSLSP light: not shown
96 | 201 | 0.8 | IL6R-P779/IL6R-L (antibody, human IgG1, kappa) heavy: QVQLQESGPGLVKPSETLSLTCAVSGHSISHDHAWSWVRQPPGEGLEWIGFISYSGITNYNPSLQGRVTISRDNSKNTLYLQMNSLRAEDTAVYYCARSLARTTAMDYWGEGTLVTVSSASTKGPSVFPLAPSSKSTSGGTAALGCLVKDYFPEPVTVSWNSGALTSGVHTFPAVLQSSGLYSLSSVVTVPSSSLGTQTYICNVNHKPSNTKVDKKVEPKSCDKTHTCPPCPAPELLGGDSVFLFPPKPKDTLMISRTPEVTCVVIDVAEEDGEVKFNWYVDGVEVHNAKTKPREEQYNSTYRVVSVLTVLHQDWLNGKEYKCAVSNKALPAPIEKTISKAKGQPREPQVYTLPPSRDELTKNQVSLTCLVKGFYPSDIAVEWESNGQPENNYKTTPPVLDSDGSFFLYSKLTVDKSRWQQGNVFSCSVMHEALHNHYTQKSLSLSP light: not shown
64.2 | 180 | 21.8 | IL6R-P775/IL6R-L (antibody, human IgG1, kappa) heavy: QVQLQESGPGLVKPSETLSLTCAVSGHSISHDHAWSWVRQPPGEGLEWIGFISYSGITNYNPSLQGRVTISRDNSKNTLYLQMNSLRAEDTAVYYCARSLARTTAMDYWGEGTLVTVSSASTKGPSVFPLAPSSKSTSGGTAALGCLVKDYFPEPVTVSWNSGALTSGVHTFPAVLQSSGLYSLSSVVTVPSSSLGTQTYICNVNHKPSNTKVDKKVEPKSCDKTHTCPPCPAPELLGGDSVFLFPPKPKDTLMISRTPEVTCVVVDVSHEDGEVKFNWYVDGVEVHNAKTKPREEQYNSTYRVVSVLTVLHQDWLNGKEYKCAVSNKALPAPIEKTISKAKGQPREPQVYTLPPSRDELTKNQVSLTCLVKGFYPSDIAVEWESNGQPENNYKTTPPVLDSDGSFFLYSKLTVDKSRWQQGNVFSCSVMHEALHNHYTQKSLSLSP light: not shown
98.8 | 200 | 15.2 | IL6R-P774/IL6R-L (antibody, human IgG1, kappa) heavy: QVQLQESGPGLVKPSETLSLTCAVSGHSISHDHAWSWVRQPPGEGLEWIGFISYSGITNYNPSLQGRVTISRDNSKNTLYLQMNSLRAEDTAVYYCARSLARTTAMDYWGEGTLVTVSSASTKGPSVFPLAPSSKSTSGGTAALGCLVKDYFPEPVTVSWNSGALTSGVHTFPAVLQSSGLYSLSSVVTVPSSSLGTQTYICNVNHKPSNTKVDKKVEPKSCDKTHTCPPCPAPELLGGDSVFLFPPKPKDTLMISRTPEVTCVVVDVAEEDGEVKFNWYVDGVEVHNAKTKPREEQYNSTYRVVSVLTVLHQDWLNGKEYKCEVSNKALPAPIEKTISKAKGQPREPQVYTLPPSRDELTKNQVSLTCLVKGFYPSDIAVEWESNGQPENNYKTTPPVLDSDGSFFLYSKLTVDKSRWQQGNVFSCSVMHEALHNHYTQKSLSLSP light: not shown
101 | 200 | 12.9 | IL6R-P780/IL6R-L (antibody, human IgG1, kappa) heavy: QVQLQESGPGLVKPSETLSLTCAVSGHSISHDHAWSWVRQPPGEGLEWIGFISYSGITNYNPSLQGRVTISRDNSKNTLYLQMNSLRAEDTAVYYCARSLARTTAMDYWGEGTLVTVSSASTKGPSVFPLAPSSKSTSGGTAALGCLVKDYFPEPVTVSWNSGALTSGVHTFPAVLQSSGLYSLSSVVTVPSSSLGTQTYICNVNHKPSNTKVDKKVEPKSCDKTHTCPPCPAPELLGGDSVFLFPPKPKDTLMISRTPEVTCVVIDVAEEDGEVKFNWYVDGVEVHNAKTKPREEQYNSTYRVVSVLTVLHQDWLNGKEYKCEVSNKALPAPIEKTISKAKGQPREPQVYTLPPSRDELTKNQVSLTCLVKGFYPSDIAVEWESNGQPENNYKTTPPVLDSDGSFFLYSKLTVDKSRWQQGNVFSCSVMHEALHNHYTQKSLSLSP light: not shown
